Measurements published in patent US20160205946A1, “ENZYMATIC IN SITU PREPARATION OF PERACID-BASED REMOVABLE ANTIMICROBIAL COATING COMPOSITIONS AND METHODS OF USE” (THE CHEMOURS COMPANY FC, LLC, priority 2009, published 2016).
Positions count from the first letter of the chain named. In names and notes the source's numbering stands.

Test: pNPA microplate assay (enzyme specific activity)
Format: biochemical
Conditions: 30 °C, pH 7.2
Experimental: Into each of four wells of a 96-well microplate were added 170 μL of potassium phosphate buffer (50 mM, pH 7.2) and either 10 μL of 0.1 mg total protein/mL of cell lysate, or 10 μL of 0.02 mg total protein/mL of a spray-dried enzyme solution. The plate was covered and placed in a microplate reader (Molecular Devices SPECTRAmax® 384 Plus), then mixed for several seconds and equilibrated at 30° C. for 10 minutes. To each well of the plate was then simultaneously added 20 μL of a 30 mM pNPA solution prepared by mixing (immediately prior to use) 0.6 mL of 100 mM pNPA in acetonitrile with 1.4 mL of 50 mM potassium phosphate buffer (pH 7.2). The change in absorbance at 400 nm was measured over 1 minute of reaction time. The background rate of pNPA hydrolysis (subtracted from the rate of hydrolysis measured in the presence of enzyme) was separately measured in four wells by substituting 10 μL/well of potassium phosphate buffer (50 mM, pH 7.2) for cell lysate or enzyme-containing solution. The extinction coefficient for para-nitrophenol, measured at pH 7.2 in a 1-cm path length cell, was 10,909 L·cm^−1·mol^−1. One pNPA Unit of enzyme activity is equivalent to the amount of protein that catalyzes the hydrolysis of one micromole of pNPA in one minute.

B1: T. maritima perhydrolase spray-dried enzyme powder: Spray-dried wild type acetyl xylan esterase from Thermotoga maritima, 27.8 wt % protein (protein, UniProt Q9WXT2 1-325, looked up)
Cephalosporin-C deacetylase: MAFFDLPLEELKKYRPERYEEKDFDEFWEETLAESEKFPLDPVFERMESHLKTVEAYDVTFSGYRGQRIKGWLLVPKLEEEKLPCVVQYIGYNGGRGFPHDWLFWPSMGYICFVMDTRGQGSGWLKGDTPDYPEGPVDPQYPGFMTRGILDPRTYYYRRVFTDAVRAVEAAASFPQVDQERIVIAGGSQGGGIALAVSALSKKAKALLCDVPFLCHFRRAVQLVDTHPYAEITNFLKTHRDKEEIVFRTLSYFDGVNFAARAKIPALFSVGLMDNICPPSTVFAAYNYYAGPKEIRIYPYNNHEGGGSFQAVEQVKFLKKLFEKG
modifications: spray-dried powder
notes: Spray-dried wild type acetyl xylan esterase from Thermotoga maritima, 27.8 wt % protein
- Specific activity of spray-dried enzyme powder: 86.1 pNPA U/mg protein

B2: T. maritima C277S perhydrolase spray-dried enzyme powder: Spray-dried T. maritima acetyl xylan esterase C277S mutant, 25.5 wt % protein (protein, UniProt Q9WXT2 1-325, looked up, variant C277S)
Cephalosporin-C deacetylase: B1 Cephalosporin-C deacetylase with C277S
modifications: spray-dried powder
notes: Spray-dried T. maritima acetyl xylan esterase C277S mutant, 25.5 wt % protein
- Specific activity of spray-dried enzyme powder: 129.5 pNPA U/mg protein
